According to article PMC10973363, “Insights into the modulation of bacterial NADase activity by phage proteins” (Nature Communications, 2024):

T1: DSR anti-defense 1 (DSAD1), His-tagged (UniProt Q796A8 1-120)
T1 construct: phage-encoded DSAD1, WP_004399562; aa 1-9 not built in the cryo-EM model; Cloned into a pET-derived vector with an N-terminal His tag; also called anti-DSR2 protein; His-tagged DSAD1; source: E. coli Rosetta (DE3), purified (Ni-NTA, anion exchange, gel filtration); not shown: His, N-terminal, kept
T1 sequence: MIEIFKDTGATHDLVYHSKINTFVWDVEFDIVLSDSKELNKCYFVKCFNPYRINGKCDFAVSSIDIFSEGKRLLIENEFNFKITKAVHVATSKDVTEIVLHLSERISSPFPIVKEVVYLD

T2: DSR2 CTD-only protein (ΔSIR2, aa 304-1005) (Bacillus subtilis 29R, UniProt P0DXN8 304-1005)
T2 construct: DSR2 from Bacillus subtilis 29R, WP_029317421, C-terminal domain aa 304-1005; source: E. coli Rosetta (DE3), purified (Ni-NTA, TEV cleavage, anion exchange, gel filtration); not shown: His, N-terminal, cleaved; MBP, N-terminal, cleaved
T2 sequence (looked up): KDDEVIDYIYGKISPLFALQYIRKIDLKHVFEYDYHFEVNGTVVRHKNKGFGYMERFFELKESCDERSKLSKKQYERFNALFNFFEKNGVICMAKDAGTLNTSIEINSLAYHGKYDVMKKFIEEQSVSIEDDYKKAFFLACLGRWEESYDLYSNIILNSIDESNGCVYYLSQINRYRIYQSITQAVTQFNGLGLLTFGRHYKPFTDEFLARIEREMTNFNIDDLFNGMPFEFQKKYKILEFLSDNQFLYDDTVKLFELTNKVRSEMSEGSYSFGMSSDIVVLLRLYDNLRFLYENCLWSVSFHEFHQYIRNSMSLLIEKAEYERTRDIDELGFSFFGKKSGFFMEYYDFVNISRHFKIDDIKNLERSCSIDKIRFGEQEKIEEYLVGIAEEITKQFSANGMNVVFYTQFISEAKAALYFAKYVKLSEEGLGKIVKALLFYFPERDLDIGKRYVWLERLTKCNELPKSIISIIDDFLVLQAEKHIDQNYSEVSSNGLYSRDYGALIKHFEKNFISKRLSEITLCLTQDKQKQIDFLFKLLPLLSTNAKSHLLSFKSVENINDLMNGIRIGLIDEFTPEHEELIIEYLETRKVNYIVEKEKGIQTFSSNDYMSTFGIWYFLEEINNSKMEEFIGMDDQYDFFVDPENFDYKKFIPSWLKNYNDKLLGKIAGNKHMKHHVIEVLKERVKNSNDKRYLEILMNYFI

B1: defense-associated sirtuin 2 (DSR2), full-length wild type (enzyme, Bacillus subtilis 29R, UniProt P0DXN8 1-1005, looked up)
chain: MVKVDLESKRYGEKLKEVFLMLDNNVVECIKEITESSRNGKLVFFVGAGVSTLSDYPQWWRLVDKYHEELYGSPKKGNYSSDEYLRIPQIFYNVKGEMAFDGILKDFFQVDKPTNPIHDKILAMNPAHVITTNYDNLIDTACWKRGKYFSVISAEEDVANATSSRYLLKVHGDFRKGFKGENVVLKEDDYLNYDQNYPLISNLMKTIIATHTIVFIGYGLGDYNINMLLNWVRKLQKDSFHKPFFIRTDPSPIENETLIYYENKGLRIIDAASLIDSNEYDYLERYSAVMDLLIESQENKFITKDDEVIDYIYGKISPLFALQYIRKIDLKHVFEYDYHFEVNGTVVRHKNKGFGYMERFFELKESCDERSKLSKKQYERFNALFNFFEKNGVICMAKDAGTLNTSIEINSLAYHGKYDVMKKFIEEQSVSIEDDYKKAFFLACLGRWEESYDLYSNIILNSIDESNGCVYYLSQINRYRIYQSITQAVTQFNGLGLLTFGRHYKPFTDEFLARIEREMTNFNIDDLFNGMPFEFQKKYKILEFLSDNQFLYDDTVKLFELTNKVRSEMSEGSYSFGMSSDIVVLLRLYDNLRFLYENCLWSVSFHEFHQYIRNSMSLLIEKAEYERTRDIDELGFSFFGKKSGFFMEYYDFVNISRHFKIDDIKNLERSCSIDKIRFGEQEKIEEYLVGIAEEITKQFSANGMNVVFYTQFISEAKAALYFAKYVKLSEEGLGKIVKALLFYFPERDLDIGKRYVWLERLTKCNELPKSIISIIDDFLVLQAEKHIDQNYSEVSSNGLYSRDYGALIKHFEKNFISKRLSEITLCLTQDKQKQIDFLFKLLPLLSTNAKSHLLSFKSVENINDLMNGIRIGLIDEFTPEHEELIIEYLETRKVNYIVEKEKGIQTFSSNDYMSTFGIWYFLEEINNSKMEEFIGMDDQYDFFVDPENFDYKKFIPSWLKNYNDKLLGKIAGNKHMKHHVIEVLKERVKNSNDKRYLEILMNYFI
notes: DSR2 from Bacillus subtilis 29R, WP_029317421; Cloned into the 2CT-10 vector (Addgene plasmid #55209) with His-MBP tag and TEV site; DSR2-TTP was cloned into a pET-derived vector with an N-terminal His tag; also called WT DSR2; full-length DSR2; source: E. coli Rosetta (DE3), purified (Ni-NTA, TEV cleavage, anion exchange, gel filtration); not shown: His, N-terminal, cleaved; MBP, N-terminal, …
B2: tail tube protein (TTP) from phage SPR, His-tagged (natural protein)
chain: MKTVIQDTADVYFKRKSDGKLVFTAEAQTASFSQAISEEKLRGGIGNKPLYILKSEKEINLTVKNAFFDLEWLAMTQGETIQEETKVKVFDREHGLIVDDTNKVTLKGKPVSDVTFYNKKGLTYKIAVSTDGTYTIPTAFAAAKDKLTAVYQIEKVGRRLAIKASKFSERYEVEYRTIAYNPDTEEVYSDIYIQFPNVSPSGEFEMSLENGNALAPEIKFEALADTDTDEMAVVIEASRDENTAAPVEDTTGSTQSSDLGGTTE
notes: tail tube protein of phage SPR, WP_010328117; C-terminal portion aa 240-264 not built in the cryo-EM model of the tube; Cloned into a pET-derived vector with an N-terminal His tag; Alone it polymerises into a tube of hexameric rings (cryo-EM); also called His-tagged TTP; tagged TTP; source: E. coli Rosetta (DE3), purified (Ni-NTA, anion exchange, gel filtration); not shown: His, N-terminal, kept

Legend:
[1] = molecular target: the molecule itself; assay: native gel or EMSA; purified DSR2 at 1 mg/mL in gel-filtration buffer (25 mM Tris-HCl pH 7.5, 150 mM NaCl, 2 mM DTT) on a 5% native gel, 120 V, 40 min, 4 °C, Coomassie staining
[2] = molecular target: B2; assay: cryo-EM structure; protein complexes (co-expressed and co-purified) or TTP tube at 0.5 mg/ml on Quantifoil Au grids, Titan Krios 300 kV; conditions: both partners purified
[3] = molecular target: T1, DSR anti-defense 1 (DSAD1), His-tagged; assay: as above; conditions: both partners purified
[4] = molecular target: the molecule itself; assay: as above
[5] = molecular target: B1; assay: pull-down; N-terminal His-tagged TTP or DSAD1 on Ni-NTA agarose beads, excess untagged DSR2 variants added, 1 h at 4 °C, 25 mM Tris-HCl pH 7.5, 300 mM NaCl, washes with 10 mM imidazole, SDS-PAGE with Coomassie staining; conditions: both partners purified
[6] = molecular target: T2, DSR2 CTD-only protein (ΔSIR2, aa …); assay: as above; conditions: both partners purified

Binder | stoichiometry N [1] | stoichiometry N [2] [TTP per DSR2 tetramer] | stoichiometry N [3] [DSAD1 per DSR2 dimer] | stoichiometry N [4] | binding result [5] | binding result [6]
B1 | 4 | 4 | 1 | – | – | –
B2 | – | – | – | 6 | binds | binds
